We go through 1 molecule from patent publication US20220064289A1 (SHENZHEN BEIKE BIOTECHNOLOGY, published 2022).

This test concerns the target T1, CD19 antigen (UniProt P15391 20-556, limits assumed).
T1 construct: whole, on cells; the cell lines are human
T1 sequence (looked up): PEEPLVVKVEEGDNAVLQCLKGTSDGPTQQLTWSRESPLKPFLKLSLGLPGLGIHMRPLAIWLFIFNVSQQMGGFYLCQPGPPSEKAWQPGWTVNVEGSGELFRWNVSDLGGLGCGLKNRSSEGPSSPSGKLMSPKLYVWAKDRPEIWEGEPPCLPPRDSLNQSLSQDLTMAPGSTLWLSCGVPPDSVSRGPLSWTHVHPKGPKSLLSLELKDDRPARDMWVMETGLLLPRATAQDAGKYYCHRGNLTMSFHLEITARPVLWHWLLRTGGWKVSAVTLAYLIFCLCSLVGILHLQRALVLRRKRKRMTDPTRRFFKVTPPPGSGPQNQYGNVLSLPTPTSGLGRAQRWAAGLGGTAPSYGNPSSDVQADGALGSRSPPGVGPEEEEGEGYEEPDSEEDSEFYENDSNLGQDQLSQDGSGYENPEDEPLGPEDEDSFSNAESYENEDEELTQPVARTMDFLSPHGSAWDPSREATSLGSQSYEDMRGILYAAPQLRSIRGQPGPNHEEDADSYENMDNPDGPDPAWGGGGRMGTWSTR
The test can be described thus: flow cytometry on BV173 cells, detected with FITC-labeled Protein L. As for the experimental part: 1. T cell and BV173 cell experimental group: 5 μg of multi-function proteins TiTE-15, 16 were added to BV173 cells and 3×10\hat{ }5 T cells derived from mononuclear cell-rich white membrane layer of normal human peripheral blood by density gradient centrifugation, and stimulated by OKT3 (50 ng/mL) and IL2 (300 IU/mL) for 14 days, and incubated on ice for 30 min. The supernatant was removed by centrifugation and the cells were re-suspended in 200 μL of PBS. 2 μL of FITC-Labeled recombinant Protein L (ACRO Biosystem, RPL-PF141) was added and incubated on ice for 30 min. The supernatant was removed by centrifugation, washed twice in 500 μL PBS, and re-suspended in 200 μL of PBS.
T cell and BV173 cell negative control group: 3*10E5 T cells respectively (PBMC stimulated with 50 ng/mL OKT3, 300 IU/mL IL2) were mixed with BV173 cells (ATCC) first, and 2 μL APC Mouse anti-Human CD279 (BD, Cat. No. 558694) was added to the cells and incubated on ice for 30 min. The supernatant was removed by centrifugation, and the cells were re-suspended in 200 μL of PBS as a negative control.

B1: multifunctional protein TiTE-15 (other)
chain: DIQMTQTTSSLSASLGDRVTISCRASQDISKYLNWYQQKPDGTVKLLIYHTSRLHSGVPSRFSGSGSGTDYSLTISNLEQEDIATYFCQQGNTLPYTFGGGTKLEITGSTSGSGKPGSGEGSTKGEVKLQESGPGLVAPSQSLSVTCTVSGVSLPDYGVSWIRQPPRKGLEWLGVIWGSETTYYNSALKSRLTIIKDNSKSQVFLKMNSLQTDDTAIYYCAKHYYYGGSYAMDYWGQGTSVTVSSGGGGSITCPPPMSVEHADIWVKSYSLYSRERYICNSGFKRKAGTSSLTECVLNKATNVAHWTTPSLKCIRDPALVHQSGGSGGGGSGGGSGGGGSLQDIQMTQSPSSLSASVGDRVTITCRASQDIRNYLNWYQQKPGKAPKLLIYYTSRLESGVPSRFSGSGSGTDYTLTISSLQPEDFATYYCQQGNTLPWTFGQGTKVEIKGGGGSGGGGSGGGGSEVQLVESGGGLVQPGGSLRLSCAASGYSFTGYTMNWVRQAPGKGLEWVALINPYKGVSTYNQKFKDRFTISVDKSKNTAYLQMNSLRAEDTAVYYCARSGYYGDSDWYFDVWGQGTLVTV
notes: Main peptide chain alone, no co-peptide chain
With B1, the binding result is listed as “binds”.
